The source of these data is patent US20190202912A1 (NEXTCURE, published 2019).

Broadly, the Kd is the constant that tells how readily two partners part at equilibrium. The koff is the rate constant with which the complex falls apart. One may read the kon as a measure of how fast the partners come together. The low end stands for slow association, the high end for fast association. Usually EC50 (read off the curve) stands for the concentration that produces a half-maximal response.

For one test, the target named is T1, hS15 (Homo sapiens, UniProt Q6ZMC9).
T1 construct: full length, cell surface; also called human Siglec-15; huS15
T1 sequence (membrane protein on cells, looked up): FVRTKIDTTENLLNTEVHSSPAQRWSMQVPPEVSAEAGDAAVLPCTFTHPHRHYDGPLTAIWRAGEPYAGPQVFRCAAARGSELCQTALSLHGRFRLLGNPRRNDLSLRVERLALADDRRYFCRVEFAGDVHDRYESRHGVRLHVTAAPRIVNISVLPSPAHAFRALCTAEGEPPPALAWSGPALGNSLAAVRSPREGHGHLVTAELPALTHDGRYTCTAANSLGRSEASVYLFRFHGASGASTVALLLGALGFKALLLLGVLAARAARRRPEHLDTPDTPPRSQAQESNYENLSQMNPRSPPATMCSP
Nature of the test: flow cytometry, live 293T.hS15 cells, 1 µg mAb/1E05 cells/100 µL, PE secondary. On the procedure: Cells were sorted to establish human S15 and mouse S15 stable cell lines. […] 1E05 cells in 100 μL FACS buffer were aliquoted to separate tubes and 1 μg of purified mAb was added. Cells were incubated at 4 degrees C. for 30 minutes, then washed twice with excess FACS buffer. Cells were resuspended in 100 μL FACS buffer and 0.005 μg of anti-mouse IgG-PE secondary antibody was added to samples, incubated for 30 minutes and washed twice with excess FACS buffer. Cells were fixed in fixation buffer and subsequently analyzed by flow cytometry.

Test [1] addresses T2, S15-extra cellular domain (ECD) monomer (human, UniProt Q6ZMC9 20-263).
T2 construct: also called S15 monomer protein
T2 sequence: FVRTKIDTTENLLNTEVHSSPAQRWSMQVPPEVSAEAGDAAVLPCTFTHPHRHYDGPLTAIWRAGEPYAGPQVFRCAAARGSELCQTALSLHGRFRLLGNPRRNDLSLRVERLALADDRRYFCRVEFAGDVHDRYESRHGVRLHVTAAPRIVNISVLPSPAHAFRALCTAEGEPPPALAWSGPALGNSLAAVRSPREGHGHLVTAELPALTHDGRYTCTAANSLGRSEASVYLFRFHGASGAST
As to the kind of experiment: BLI (Octet RED96), mAb on anti-human Fc sensors, S15-ECD monomer in solution, global fit. On the procedure: Optimized KD experiments were performed on a ForteBio Octet RED96 instrument using anti-human Fc capture (AHC, 18-5060; ForteBio) sensors. Assay buffer was PBS containing 0.05% Tween-20 and regeneration buffer was 10 mM glycine (pH 1.5). First the antibodies were loaded at 1 μg/mL for 600 seconds. This was followed by a 60 second baseline step, a 300 second association step in S15-extra cellular domain (ECD) monomer, and finally a 1200 second dissociation step. The monomer concentrations ranged from 100 nM to 1.56 nM in a two-fold dilution series and a blank well was included. Data was processed using ForteBio's Data Analysis Software 7.0; a global fit was used, along with reference well subtraction. Reported values are the average of at least three independent octet runs.
In general terms: In BLI a coated tip is dipped into the sample, and binding shifts an interference pattern.

For another test, the target named is T3, mS15 (Mus musculus).
T3 construct: full length, cell surface; also called mouse Siglec-15
Nature of the test: flow cytometry titration, 293T cells transfected with mouse Siglec-15 (293T.mS15). Here is the method: […] Cells were incubated at 4 degrees C. for 30 minutes, then washed twice with excess FACS buffer. Cells were resuspended in 100 ul FACS buffer and 0.005 ug of anti-mouse IgG-PE secondary antibody was added to samples, incubated for 30 minutes and washed twice with excess FACS buffer. Cells were fixed in fixation buffer (2% formaldehyde in PBS) and subsequently analyzed by flow cytometry.
A general note: A flow cytometer gives signals particle by particle.

B1: 9A5 (antibody, V domains shown)
VH: HVQLQQSGAELARPGASVKLSCKASGYTFTSYGLIWVKQRTGQGLEWIGEIYPRSGNTYYNEKFKGKATLTADISSSTAYMELRSLTSEDSAVYFCASSSPHGDYWGQGTTLTVSS
VL: not shown
B1: the binding result with hS15 is “binds”.

B2: 1H3 (antibody, V domains shown)
VH: QVQLKESGPGLVAPSQSLSITCTVSGFSLSNYGVHWVRQPPGKGLEWLVLIWSDGSTTYNSALKSRLSISKDNSKSQVFLKMNSLQTGDTAMYYCARHPYDDYSGYYYTMDYWGQGTSVTVSS
VL: DIQMTQASSSLSVSLGGRVTITCKASDHINNWLAWYQQKPGNAPRLLISGATSLETGVPSRFSGSGSGKDYTLSITSLQTEDVATYYCQQYWSSPLTFGAGTKLELK
notes: Mouse anti-human Siglec-15 mAb
As to B2, in test [1], the Kd amounted to 0.11 nM, the koff worked out at 3.9e-05 s⁻¹ and the kon came to 359000 M⁻¹ s⁻¹. Moreover, the “EC50 (read off the curve)” value with mS15 is roughly 0.05 µg/mL.

B3: NC28 (antibody, V domains shown)
VH: QVQLQQSGAELARPGASVKLSCKASGYTFISYGITWVKQRTGQGLEWIGEIHPRSGNTYYNENFKDRASLTADKSSSTAYMEVRSLTSEDSAVYFCARGGPGDYWGQGTTLTVSS
VL: not shown
notes: mouse anti-human Siglec-15 mAb; also called 28A
In the case of B3, the binding result with hS15 was “binds”.

B4: 5G12 (antibody, V domains shown)
VH: QVQLQQPGAELVKPGASVKMSCKASGYTFTSYWITWVIQRPGQGLEWIGDIYCGSDTMHYNEKFKNKATLTVDTSSSTAYMQLSSLTSEDSAVYYCARWWDYGSSYDYFDYWGQGTTLTVSS
VL: DIKMTQSPSSMYASLGERVTITCKASQDINSYLSWFQQKPGKSPKTLIYRANRLVDGVPSRFSGSGSGQDYSLTISSLEYEDMGIYYCLQYDEFPYTFGGGTKLEIKR
notes: as for B2
In test [1], B4 had a Kd of 0.3 nM, a koff of 0.000123 s⁻¹ and a kon of 421000 M⁻¹ s⁻¹. In the test with mS15, the “EC50 (read off the curve)” value is roughly 0.05 µg/mL.

B5: NC63 (antibody, V domains shown)
VH: QVQLQQSGAELARPGASVKLSCKASGYTFTSYGISWVKQRTGQGLEWIGQIYPRSDNTYYNERFKGKATLTADKSSSTAYMALRSLTSEDSAVYFCAREGGPDYWGQGTTLTVSS
VL: not shown
notes: mouse anti-human Siglec-15 mAb; also called 63A
Turning to B5, in the test with hS15, the binding result is listed as “binds”.
